Changes are numbered by the printed parent chain.
T1: B7H3 on the cell surface (PC9 cells; 293T-B7H3 cells) (UniProt Q5ZPR3 29-534, limits assumed)
T1 construct: whole, on cells; both carry B7H3 on the surface; also called Cell Surface B7H3; B7H3 protein in PC9 cells
T1 sequence (looked up): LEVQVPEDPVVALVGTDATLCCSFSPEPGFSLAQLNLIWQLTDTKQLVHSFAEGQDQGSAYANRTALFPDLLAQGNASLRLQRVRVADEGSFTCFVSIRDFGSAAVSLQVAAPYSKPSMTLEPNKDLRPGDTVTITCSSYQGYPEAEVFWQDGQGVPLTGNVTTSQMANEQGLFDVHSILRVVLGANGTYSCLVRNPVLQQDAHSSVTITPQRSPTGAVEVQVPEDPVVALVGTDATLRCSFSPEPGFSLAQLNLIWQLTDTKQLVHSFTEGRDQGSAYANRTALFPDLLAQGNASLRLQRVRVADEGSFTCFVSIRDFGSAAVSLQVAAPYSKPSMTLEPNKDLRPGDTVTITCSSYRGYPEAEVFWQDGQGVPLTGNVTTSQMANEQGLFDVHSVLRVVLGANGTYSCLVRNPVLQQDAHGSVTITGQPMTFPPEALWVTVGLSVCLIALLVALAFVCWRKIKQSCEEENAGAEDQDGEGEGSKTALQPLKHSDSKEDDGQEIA

T2: B7H3-hFc (UniProt Q5ZPR3 29-466, limits assumed)
T2 construct: Construct limits, linker and Fc not described; also called B7H3-hFc protein; not shown: human Fc (hFc)
T2 sequence (looked up): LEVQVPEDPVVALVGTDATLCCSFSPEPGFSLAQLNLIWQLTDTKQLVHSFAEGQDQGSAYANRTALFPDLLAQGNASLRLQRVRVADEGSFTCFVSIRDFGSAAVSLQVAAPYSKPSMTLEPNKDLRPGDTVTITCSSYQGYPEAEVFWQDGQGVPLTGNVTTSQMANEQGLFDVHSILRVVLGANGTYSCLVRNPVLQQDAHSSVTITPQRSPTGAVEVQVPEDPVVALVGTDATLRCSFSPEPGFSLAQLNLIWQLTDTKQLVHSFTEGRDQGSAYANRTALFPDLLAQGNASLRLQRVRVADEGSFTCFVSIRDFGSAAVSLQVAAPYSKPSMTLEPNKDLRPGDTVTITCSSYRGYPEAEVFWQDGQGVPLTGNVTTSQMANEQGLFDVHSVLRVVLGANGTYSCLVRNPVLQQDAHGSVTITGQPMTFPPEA

B1: 7F5 (antibody, mouse IgG1, V domains shown)
VH: EVQLQQSGAELVRPGALVKLSCKTSGFNIKAYYIHWVKQRPEQGLEWIGWIDPENGNTFYDPKFQGKASITADTSSNTAYLQLSSLTSEDAAVYYCTRSSTRLRPFDYWGQGTTLTVSS
VL: DIVMTQAAFSNPVTLGTSASISCRSSKSLLHSNGITYLYWYLQKSGQSPQLLIYQMSNLASGVPDRFSSSGSGTDFTLRISRVEAEDVGVYYCAQNLELYTFGGGTKLEIK
notes: Murine hybridoma antibody purified by protein A; also called B7H3 hybridoma monoclonal antibody 7F5
B2: 13A2 (antibody, mouse IgG2b, V domains shown)
VH: EVQLQQSGPELVKPGASVKISCKTSGYTFTEYVMHWVKQRHGQSLEWIGGINPNTGGTTYNQKFEGKATLTVDKSSSSAYMEFRSLTSEDSAVYYCARRMPFGISAMDYWGQGTSVTVSS
VL: QIVLTQSPAIMSASPGEKVTMTCSASSSVSYIHWFQQKSGTSPKRWISETSKLASGVPARFSGSGSGTSYSLTISSMGAEDAATYYCHQWISYPPTFGAGTKLELK
notes: Murine hybridoma antibody; also called B7H3 hybridoma monoclonal antibody 13A2
B3: 2F12 (antibody, mouse IgG1, V domains shown)
VH: EVQLQQSGPELVKSGASVNISCKTSGYTFTENTMHWVKLSHGKSLEWIGGINPNNGGTTYNQKFKGKATLTVDKSSSTAYMELRSLTSEDSAVYYCARRGRWPPDWYFDVWGAGTTVTVSS
VL: B2 VL with V29L, I32M, F35Y, S48Y, E49D, G78E, H88Q, I91S, Y93N, P95L
notes: Murine hybridoma antibody; also called B7H3 hybridoma monoclonal antibody 2F12
B4: 2E10 (antibody, mouse IgG2a, V domains shown)
VH: EVQLQQSGPELVKPGASVKISCKTSGYTFTEYTMHWVKQSHGKNLEWIGGINTDNGGTTYSQKFKDKATLTVDRSSSTAYMVLRSLTSEDSAVYYCARSFNNYGPAWFAYWGQGALVTVSA
VL: DIVMTQSHKFMSTSIGDRVSITCKASQDVRSAVAWYQQRPGQSPKLLIYWASTRHTGVPARFTGSGSGTDYTLTINNVQSEDLAGYFCQQYSSYFTFGGGTKLEKK
notes: Murine hybridoma antibody; also called B7H3 hybridoma monoclonal antibody 2E10
B5: 2F7 (antibody, mouse IgG2b, V domains shown)
VH: QVQLQQPGAELVKPGASVKLSCKASGYTFTSYYIYWLKQRPGQGLEWIGGIKPSNGDTNFNAKFMNKATLTVDKSSSTAYMQLSSLTSEDSAIYYCTRFFYGSPYDFDVWGAGTTVTVSS
VL: NIVMTQSPKSMSMAVGERVTLTCKASENVDTHVSWYQQKPEQSPTLLMYGTSNRFTGVPDRFTGSGSATDFTLTISSVQAEDLADYHCGQSYRYPYTFGGGTKLEIK
notes: Murine hybridoma antibody; also called B7H3 hybridoma monoclonal antibody 2F7
B6: 5B6 (antibody, mouse IgG1, V domains shown)
VH: QVQLQQSGAELARPGASVKMSCKTSGYTFITYTIHWVKQRPGQGLEWIGYINPTSDYANFNQKFKDKATLTADKSSRTAYMQLSSLTSEDSAVYYCARWGTTVFQFYFDYWGQGTTLTVSS
VL: QIVLSQSPAILSASPGEKVTMTCRASQSLSYINWYQLKPGSSPKPWIYATSSLQSGVPARFSGSASGTSYSLTISRVEAEDAATYFCQHWSSDPPTIGGGTKLEIK
notes: Murine hybridoma antibody; also called B7H3 hybridoma monoclonal antibody 5B6
B7: 9C8 (antibody, mouse IgG1, V domains shown)
VH: EVQLQQSGPELVKPGASVKISCKTSGYTFTEYTIHWVKQSHGKSLEWIGGINPNSGGTTYNLKFKGKATLTVDKSSSTVYMELRSLTSEDSAVYYCARKEGFFTTDYWGQGTTLTVSS
VL: QTVLTQSPAIMSASPGEKVTMTCSASSSLSYIHWYRQKSGTSPKRWIYDTSNLATGVPVRFSGSGSGTSYSLTISSMEAEDAATYYCQQWHYNPPTFGGGTKLEIK
notes: Murine hybridoma antibody; also called B7H3 hybridoma monoclonal antibody 9C8
B8: 14B3 (antibody, mouse IgG1, V domains shown)
VH: QVQLQQSGPELVRPGVSVKISCKGSGYTFTDHAIHWVKQSHAKSLEWIGVINTYSGNTNFNQKLKGKATMTVDKSSSTAYMELARLTSEDSAIYYCARGAHSSGYPYWYFDVWGAGTTVTVSS
VL: QIVLSQSPAILSASAGEKVTMTCRASSSVSYMHWYQQKPGSSPKPWIYATSNLASGVPARFSGSGSGTSYSLTISRVEAEDAATYYCQQWSTNPFTFGSGTKLEMK
notes: Murine hybridoma antibody; also called B7H3 hybridoma monoclonal antibody 14B3

The binders below were run against T1, B7H3 on the cell surface (PC9 cells; …) (assay: FACS on cells carrying B7H3 (PC9 per FIG. 2; 293T-B7H3 per method)).

| Binder | EC50 |
| --- | --- |
| B1 | 0.197 µg/mL |
| B2 | 0.101 µg/mL |
| B3 | 0.217 µg/mL |
| B4 | 0.234 µg/mL |
| B5 | 0.177 µg/mL |
| B6 | 0.0713 µg/mL |
| B7 | 0.0861 µg/mL |
| B8 | 0.248 µg/mL |

Each binder was assayed against T2, B7H3-hFc (assay: ELISA, B7H3-hFc coated plate, purified hybridoma antibody).
Experimental: (1) Screening of B7H3-binding positive clones through ELISA: 50 μL of B7H3-hFc (final concentration: 2 μg/mL) was used to coat each well of a 96-well ELISA plate (Corning, Cat. No.: 9018), and incubated overnight at room temperature. After the ELISA plate was rinsed with washing buffer (PBS+0.05% Tween20) 3 times, blocking buffer (PBS+2% BSA (Sigma, Cat. No.: V90093)) was added and the ELISA plate was incubated at room temperature for 1 hour. The ELISA plate was rinsed with washing buffer 3 times; and hybridoma supernatant was added, and the ELISA plate was incubated at room temperature for 1 hour and rinsed 3 times. 100 μL of 10,000-fold diluted HRP-conjugated goat anti-mouse IgG secondary antibody (Thermo, Cat. No.: 31432) was added to each well, and the ELISA plate was incubated at room temperature for 1 hour in the dark and rinsed 3 times. 100 μL of TMB (Biocytogen, Cat. No.: ES-002) was added to each well, and the ELISA plate was incubated at room temperature for color development for 2 minutes, 100 μL of reaction terminating solution (2N H2SO4) was added to each well to terminate the color reaction, and an OD450 value of each well was read using a microplate reader (Tecan Spark). (2) Screening of B7H3-binding positive clones through FACS: 50 μL of the positive hybridoma supernatant or purified hybridoma antibody in the foregoing test was mixed with 50 μL of 293T-B7H3 cells (2×10⁵ cells/well), and a resulting mixture was added to a 96-well plate with a U-shaped bottom and left standing at 4° C. for 1 hour, the 96-well plate was rinsed with FACS buffer (PBS+3% FCS) and centrifuged twice, then 400-fold diluted PE-labeled goat anti-mouse secondary antibody (Biolegend, Cat. No.: 405307) was added, the 96-well plate was incubated at 4° C. for 30 minutes in the dark, rinsed with FACS buffer and centrifuged twice, and signal values of the cells in a PE channel were detected by using BD Accuri C6 flow cytometer. (3) Subcloning: Positive multiclonal hybridoma cells identified by ELISA and FACS were subcloned using the limiting dilution method. The subclones were further detected and screened using ELISA and FACS to obtain positive hybridoma monoclonal clones.
ELISA and FACS were conducted to detect the binding ability of purified antibody samples to B7H3. Results are shown in FIG. 1(a-b), FIG. 2(a-b) and Table 1.

| Binder | EC50 |
| --- | --- |
| B1 | 0.00576 µg/mL |
| B2 | 0.00052 µg/mL |
| B4 | 0.0067 µg/mL |
| B5 | 0.00278 µg/mL |
| B6 | 0.00493 µg/mL |
| B7 | 0.0104 µg/mL |
| B8 | 0.0091 µg/mL |
